These are literature values, as cited in publication PMC6263114.

For this series, the target named is transferrin receptor (TfR) (Homo sapiens) (UniProt P02786).
transferrin receptor (TfR) (Homo sapiens), sequence (P02786 89-760): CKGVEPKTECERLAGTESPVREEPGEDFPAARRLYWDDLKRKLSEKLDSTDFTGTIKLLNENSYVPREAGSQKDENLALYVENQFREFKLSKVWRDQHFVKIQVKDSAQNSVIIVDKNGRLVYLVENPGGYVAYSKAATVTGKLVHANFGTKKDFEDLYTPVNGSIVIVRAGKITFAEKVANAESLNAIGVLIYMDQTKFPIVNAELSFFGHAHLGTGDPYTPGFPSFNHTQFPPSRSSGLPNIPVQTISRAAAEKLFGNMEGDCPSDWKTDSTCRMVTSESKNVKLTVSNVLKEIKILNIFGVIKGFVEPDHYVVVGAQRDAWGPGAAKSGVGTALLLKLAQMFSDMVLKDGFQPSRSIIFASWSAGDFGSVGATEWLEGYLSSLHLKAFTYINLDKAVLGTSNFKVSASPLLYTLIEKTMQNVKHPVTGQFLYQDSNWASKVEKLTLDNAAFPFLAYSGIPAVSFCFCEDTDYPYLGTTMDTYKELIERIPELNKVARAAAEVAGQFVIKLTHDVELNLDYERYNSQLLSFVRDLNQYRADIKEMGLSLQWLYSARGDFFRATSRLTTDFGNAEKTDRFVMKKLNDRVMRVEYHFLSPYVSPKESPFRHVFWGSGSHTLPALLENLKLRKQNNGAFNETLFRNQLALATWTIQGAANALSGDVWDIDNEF

Regarding T7 peptide, the Kd is 0.01 µM.
